In PMC5575849 (Developmental cell, 2017):

Target: the molecule itself
Test: single-cell single-molecule pull-down

B1: mNG::AraD (mNG::3xFlag::AraD) (enzyme, E. coli, UniProt P08203 1-231, looked up)
chain: MLEDLKRQVLEANLALPKHNLVTLTWGNVSAVDRERGVFVIKPSGVDYSVMTADDMVVVSIETGEVVEGTKKPSSDTPTHRLLYQAFPSIGGIVHTHSRHATIWAQAGQSIPATGTTHADYFYGTIPCTRKMTDAEINGEYEWETGNVIVETFEKQGIDAAQMPGVLVHSHGPFAWGKNAEDAVHNAIVLEEVAYMGIFCRQLAPQLPDMQQTLLDKHYLRKHGAKAYYGQ
stoichiometry N: 4
